Results reported in patent US20140294731A1 (AC IMMUNE S A, published 2014).
Numbering of substitutions follows the chain as printed. Where no end group is shown, it is not given here. [ ]: non-standard residue; d: D form. The star is where a group is joined. Biotin = O=C1N[C@H]2[C@H](CS[C@H]2CCCCC(=O)*)N1; pS = N[C@@H](COP(=O)(O)O)C(=O)O; LC linker = not defined here

T1: T3.30: Biotin-LC linker-GVYKS[PO3H2]PVVSGDTS[PO3H2]PRHL-NH2 (reading uncertain; also: printed as Biotin-LC linker-GVYKS[PO3H2]PVVSGDTS[PO3H2]PRHL-NH2)
T1 construct: Human Tau 393-408 with an added N-terminal Gly; two lots used: MI89P9-P12-2 (64% pure) and MI89P9-P12-3 (87% pure); also called Phospho-tau peptide; phosphopeptide T3.30
T1 peptide: {Biotin-LC linker}-GVYK[pS]PVVSGDT[pS]PRHL-NH2

T2: non-phosphorylated Tau peptide T3.6: Tau393-408 (human)
T2 construct: Synthetic peptide (PolyPeptide Laboratories); also called non-phospho counterpart of the antigenic peptide; non-phospho-peptide
T2 peptide: VYKSPVVSGDTSPRHL

T3: pTau peptide T3.5: Tau393-408 [pS396/pS404] (human)
T3 construct: Synthetic peptide (PolyPeptide Laboratories), coated on ELISA plates at 10 µg/mL; also called Tau p-peptide; T3: Tau 393-408 [pS396, pS404]
T3 peptide: VYK[pS]PVVSGDT[pS]PRHL

B1: ACI-35-4A6-Ab1 (antibody, IgG2b, V domains shown)
VH: QVQLQQPGAELLKPGASVKLSCKASGYTFTSYWMHWVKQRPGRGLEWIGRIDPNSDRTKYNEKFKRKATLTVDKSSSTAYMQLSSLTSEDSAVYYCARDDYAWFAYWGQGTLVTVSA
VL: DVLMTQTPLSLPVSLGDQASISCRSSQSIVHSNGNTYLEWYLQKPGQSPKLLIYKLSNRFSGVPDRFSGSGSGTDFTLKISRVEAEDLGVYYCFQGSHVPPTFGGGTKLEIK
notes: also called ACl-35-4A6-Ab1; hybridoma A4-4A6-18
B2: ACI-35-2G5-Ab1 (antibody, IgG2a, V domains shown)
VH: QVQLKQSGAELVRPGASVKLSCKASGYTFTDYYINWVKQRPGQGLEWIARIYPGRGNIYYNEKFKGKATLTAEKSSSTAYMQLSSLTSEDSAVYFCARFWDVTYWGQGTLVTVSA
VL: B1 VL with Y41F, L56V, P101Y
notes: also called ACl-35-2G5-Ab1; ACl-35-2G5-AB1
B3: ACI-35-2A1-Ab1 (antibody, IgG2b, V domains shown)
VH: EVQLQQSGPELVKPGASVKISCKASGYTFTDYYMNWVKQSHGKSLEWIGDINPNNGGTSYNQKFKGKATLTVDKSSSTAYMELRSLTSEDSAVYYCVREGRFAYWGHGTLVTVSA
VL: DIVMTQAAPSVPVTPGESVSISCRSSKSLLHSNGNTYLYWFLQRPGQSPQLLIHRMSNLASGVPDRFSGSGSGTAFTLRISRVEAEDVGVYYCMQHLKSPYTFGGGTKLEIK
notes: Biotinylated (-BT) in the AlphaLISA and as detector in the Setup 1 ELISA; also called ACl-35-2A1-Ab1; hybridoma A4-2A1-18
B4: ACI-35-2G5-Ab2 (antibody, IgG2b, V domains shown)
VH: B3 VH with Y27F, N61H, H107Q
VL: DIVMTQSQKFMSTSVGDRVSVTCKASQNVGTNVAWYQQKPGQSPKALIYSASYRYSGVPDRFTGSGSGTDFTLTISNVQSEDLAEYFCQQYNSYPYTFGGGTKLEIK
notes: also called ACl-35-2G5-Ab2; ACl-35-2G5-AB2
B5: ACI-35-2G5-Ab3 (antibody, IgG2b, V domains shown)
VH: B3 VH with Y27F, N61H, H107Q
VL: B4 VL
notes: Biotinylated (-BT) in the AlphaLISA and as detector in the Setup 1 ELISA; also called ACl-35-2G5-Ab3; ACl-35-2G5-AB3
B6: ACI-35-4A6-Ab2 (antibody, V domains shown)
VH: B3 VH
VL: B3 VL with H54Y
notes: also called ACl-35-4A6-Ab2; hybridoma A4-4A6-48
B7: ACI-35-1D2-Ab1 (antibody, IgG2a, V domains shown)
VH: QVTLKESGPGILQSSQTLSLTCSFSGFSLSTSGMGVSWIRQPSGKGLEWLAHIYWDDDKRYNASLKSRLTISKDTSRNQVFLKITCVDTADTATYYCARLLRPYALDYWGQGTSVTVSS
VL: NILMTQSPSSLAVSAGEKVTMSCKSSQSVLYSSNQKNYLAWYQQKPGQSPKLLIYWASTRESGVPDRFTGSGSGTDFTLTISSVQAEDLAVYYCLQYLSSLTFGAGTKLELK
notes: Biotinylated (-BT) in the AlphaLISA; also called ACl-35-1D2-Ab1; hybridoma A6-1D2-12

Experiments:
[1] = target: T1, T3.30: Biotin-LC …; assay: SPR (Biacore X), T3.30 on streptavidin chip, antibody injected, 1:1 Langmuir fit; peptide lot 87% pure
Description: (§1) All SPR experiments were carried out on a Biacore X instrument (GE Healthcare). Sensor chip SA (Streptavidin derivatized carboxymethyl dextran) was purchased from GE Healthcare. Running buffer was PBS (Dulbecco's PBS, Sigma D8537). Non-covalently bound Streptavidin was firstly removed from the sensor surface by injecting 8 pulses (each ˜1 μL) of 16 mM NaOH (aq). Phospho-tau peptide was then solubilized in PBS to give a final peptide concentration of 1 μM and then injected (35 μL) over flow cell (fc) 2 of the sensor chip at 5 μl/min. After coupling, a final immobilization level of 130 RUs was obtained. To study the binding of the antibodies to the chip surface, several concentrations of antibodies were prepared by serial 2-fold dilutions with running buffer. The injections were performed over both fc 1 and 2 at a flow rate of 50 μL/min for 120 s. Flow cell 1 was not derivatized and responses of fc 1 were subtracted from fc 2 to correct for instrument noise and bulk refractive changes. After each injection, the surfaces were washed immediately with running buffer for 100s. To remove any remaining bound antibody from the chip, surface regeneration was performed by injecting 1 μL of 10 mM Glycine-HCl pH 1.7. Kinetic analyses were performed using algorithms for numerical integration and global analysis using BIAevaluation 3.0. The sensograms obtained for injections of antibody at different concentrations were overlaid and the baselines adjusted to zero. For curve fitting, all data were fit simultaneously to a 1:1 homogeneous (Langmuir) model.

[2] = target: T1, T3.30: Biotin-LC …; assay: SPR (Biacore X), T3.30 on streptavidin chip, antibody injected, 1:1 Langmuir fit; peptide lot 64% pure
Description: as §1

[3] = target: T4, full-length (441 aa) Tau protein (SignalChem) (human, UniProt P10636 1-758); assay: ELISA, plate-coated protein; grade (+ Good binding)
T4 construct: Bought recombinant protein; also called Full-length Tau; non-phospho full-length Tau protein

[4] = target: T4, full-length (441 aa) Tau protein …; assay: ELISA, plate-coated protein
[5] = target: T5, phosphorylated full-length (441 aa) Tau protein (human, UniProt P10636 1-758, phosphorylated; the sites are not stated (preparation cited as Vandebroek et al., 2005)); assay: ELISA, plate-coated protein
T5 construct: Full-length 441 aa Tau; Coated at 1 µg/mL; also called pTau protein; Full-length pTau

[6] = target: T2, non-phosphorylated Tau peptide T3.6: …; assay: hybridoma supernatant ELISA screen (conclusion of Example 1)
Description: (§2) Hybridomas ELISA screen was performed on pTau peptide (ACl-35, T3.5: Tau393-408[pS396/pS404; PolyPeptide Laboratories, Hillerød, Denmark), the corresponding non-phosphorylated Tau peptide (T3.6: Tau393-408, PolyPeptide Laboratories), phosphorylated full-length (441aa) Tau protein (pTau protein, Vandebroek et al., 2005) and full-length (441aa) Tau protein (Tau protein, SignalChem, Richmond, Canada). Finally Bovine Serum Albumin (BSA) was used as negative control.
(§3) Plates were coated with 10 μg/ml of corresponding Tau peptide and 1 μg/ml of corresponding Tau protein overnight at 4° C. After washing each well with PBS-0.05% Tween 20 and blocking with 1% BSA in PBS-0.05% Tween 20, undiluted hybridoma supernatant or medium negative control were added to the plates and incubated at 37° C. for 2 hours. After washing plates were incubated with an alkaline phosphatase (AP)-conjugated anti-mouse IgG total antibody (Jackson Laboratories, Baltimore, Pa., USA) for 2 hours at 37° C. After washing plates were incubated with pNPP (para-nitro-phenyl-phosphate), the phosphatase substrate for AP, and read at 405 nm using an ELISA plate reader. Results are expressed as O.D. (Optical Density).

[7] = target: T3, pTau peptide T3.5: Tau393-408 …; assay: as above
Description: as §2, §3

T4 sequence (P10636 other isoform, or with tags, fused parts or gaps limits assumed): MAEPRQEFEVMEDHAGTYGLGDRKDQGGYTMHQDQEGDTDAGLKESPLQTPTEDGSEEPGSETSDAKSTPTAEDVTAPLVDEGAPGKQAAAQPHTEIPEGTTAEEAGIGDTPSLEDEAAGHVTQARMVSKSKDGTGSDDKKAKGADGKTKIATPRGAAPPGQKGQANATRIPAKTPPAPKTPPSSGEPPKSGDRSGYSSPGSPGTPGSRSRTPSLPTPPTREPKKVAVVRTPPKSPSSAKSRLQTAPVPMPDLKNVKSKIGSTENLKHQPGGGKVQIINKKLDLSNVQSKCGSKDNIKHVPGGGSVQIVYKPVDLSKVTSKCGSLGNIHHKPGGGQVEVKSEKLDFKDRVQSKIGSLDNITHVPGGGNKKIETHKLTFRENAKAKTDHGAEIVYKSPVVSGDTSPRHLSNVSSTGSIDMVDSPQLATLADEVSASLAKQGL
T5 sequence (P10636 other isoform, or with tags, fused parts or gaps limits assumed): as above

Binder | Kd [1] [nM] | koff [1] [s⁻¹] | kon [1] [M⁻¹ s⁻¹] | Kd [2] [nM] | koff [2] [s⁻¹] | kon [2] [M⁻¹ s⁻¹] | binding result [3] | binding result [4] | binding result [5] | binding result [6] | binding result [7]
B1 | 15 | 0.0017 | 110000 | 16 | 0.0031 | 200000 | binds | – | – | – | –
B2 | 70 | 0.0022 | 32000 | 10 | 0.0053 | 480000 | – | no binding (tested: up to 20 µg/mL antibody) | no binding (tested: up to 20 µg/mL antibody) | – | –
B3 | 38 | 0.001 | 27000 | – | – | – | – | – | – | – | –
B4 | 10 | 0.00023 | 24000 | – | – | – | – | – | – | – | –
B5 | 2 | 3.8e-05 | 17000 | – | – | – | – | – | – | – | –
B6 | – | – | – | – | – | – | – | – | – | binds | binds
B7 | 82 | 0.0018 | 22000 | ≤ 6 | 9.3e-06 | 1600 | – | – | – | – | –
